The target in experiment [1] is T1, SSA.
T1 construct: also called SSA (Ro)
The experiment can be described thus: AtheNA, Ab 6.25 ug/ml.
Text: (§1) AtheNA Multi-Lyte ANA Plus Test System is one such assay. This is luminex-based assay, which is also used to screen patient sera.

Experiment [2] concerns the target T2, Histones.
T2 construct: Mixture of proteins
The experiment can be described thus: AtheNA, Ab 6.25 ug/ml.
Text: as §1

Experiment [3] deals with T3, Sm (Smith antigen).
T3 construct: Protein complex
The experiment can be described thus: AtheNA, Ab 6.25 ug/ml.
Text: as §1

Experiment [4] concerns the target T4, SSB (UniProt P05455 1-408).
T4 sequence: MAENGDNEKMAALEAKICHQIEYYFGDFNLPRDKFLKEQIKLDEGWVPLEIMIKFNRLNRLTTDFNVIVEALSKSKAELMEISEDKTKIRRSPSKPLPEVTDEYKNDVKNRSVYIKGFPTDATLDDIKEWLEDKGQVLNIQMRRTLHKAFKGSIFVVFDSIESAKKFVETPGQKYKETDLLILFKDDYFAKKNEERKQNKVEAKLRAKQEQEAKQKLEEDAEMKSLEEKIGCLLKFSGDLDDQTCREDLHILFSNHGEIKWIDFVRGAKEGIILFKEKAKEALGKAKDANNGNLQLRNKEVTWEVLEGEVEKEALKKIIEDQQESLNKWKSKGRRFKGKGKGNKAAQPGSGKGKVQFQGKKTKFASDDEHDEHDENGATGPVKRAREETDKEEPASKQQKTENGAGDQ
The experiment can be described thus: AtheNA, Ab 6.25 ug/ml.
Text: as §1

The target of experiment [5] is T5, RNP (ribonucleoprotein).
T5 construct: Protein-RNA complex
Kind of experiment: AtheNA, Ab 6.25 ug/ml.
Text: as §1

In experiment [6] the target is T6, Scl-70 (UniProt P11387 1-765).
T6 sequence: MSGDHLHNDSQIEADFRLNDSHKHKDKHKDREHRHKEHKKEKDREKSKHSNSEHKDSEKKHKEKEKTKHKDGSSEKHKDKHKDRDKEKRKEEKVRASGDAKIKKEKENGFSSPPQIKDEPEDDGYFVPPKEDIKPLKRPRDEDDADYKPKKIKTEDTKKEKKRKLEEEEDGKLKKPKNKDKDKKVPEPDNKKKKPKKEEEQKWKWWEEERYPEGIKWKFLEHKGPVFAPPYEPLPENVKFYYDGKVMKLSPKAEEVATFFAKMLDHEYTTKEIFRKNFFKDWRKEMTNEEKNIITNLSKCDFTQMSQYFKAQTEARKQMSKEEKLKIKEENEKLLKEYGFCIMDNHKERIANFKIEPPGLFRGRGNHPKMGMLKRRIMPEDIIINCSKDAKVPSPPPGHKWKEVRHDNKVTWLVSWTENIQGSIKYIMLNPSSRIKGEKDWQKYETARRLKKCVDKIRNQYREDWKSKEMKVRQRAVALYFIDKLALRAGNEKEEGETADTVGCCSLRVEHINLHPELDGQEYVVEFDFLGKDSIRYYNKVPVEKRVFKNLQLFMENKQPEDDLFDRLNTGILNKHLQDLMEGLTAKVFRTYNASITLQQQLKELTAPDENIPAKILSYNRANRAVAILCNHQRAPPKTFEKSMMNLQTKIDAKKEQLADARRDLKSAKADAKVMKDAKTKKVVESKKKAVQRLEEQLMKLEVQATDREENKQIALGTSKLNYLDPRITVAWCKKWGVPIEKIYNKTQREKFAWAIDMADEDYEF
The experiment can be described thus: AtheNA, Ab 6.25 ug/ml.
Text: as §1

The target in experiment [7] is T7, Centromere B (UniProt P07199 1-599).
T7 construct: also called Cent B
T7 sequence: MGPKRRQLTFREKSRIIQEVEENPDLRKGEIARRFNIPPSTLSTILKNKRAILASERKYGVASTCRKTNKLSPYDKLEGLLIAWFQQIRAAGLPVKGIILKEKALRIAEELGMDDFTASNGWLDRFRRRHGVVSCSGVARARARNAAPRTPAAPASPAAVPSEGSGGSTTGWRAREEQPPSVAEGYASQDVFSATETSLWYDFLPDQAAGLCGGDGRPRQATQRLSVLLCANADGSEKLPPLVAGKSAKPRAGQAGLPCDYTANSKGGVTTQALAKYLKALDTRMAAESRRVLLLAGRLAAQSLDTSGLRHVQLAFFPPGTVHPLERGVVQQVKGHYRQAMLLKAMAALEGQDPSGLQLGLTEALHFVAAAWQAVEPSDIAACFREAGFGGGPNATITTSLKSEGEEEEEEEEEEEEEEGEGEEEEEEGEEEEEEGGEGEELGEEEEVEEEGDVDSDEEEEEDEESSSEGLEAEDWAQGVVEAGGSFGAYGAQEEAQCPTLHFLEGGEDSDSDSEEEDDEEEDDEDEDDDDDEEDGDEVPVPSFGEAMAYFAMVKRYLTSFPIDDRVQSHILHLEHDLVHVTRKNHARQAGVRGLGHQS
The experiment can be described thus: AtheNA, Ab 50 ug/ml.

Experiment [8] has as its target T1, SSA. Kind of experiment: AtheNA, Ab 50 ug/ml.
The target of experiment [9] is T2, Histones. Kind of experiment: AtheNA, Ab 50 ug/ml.
The target in experiment [10] is T3, Sm (Smith antigen). Kind of experiment: AtheNA, Ab 50 ug/ml.
Experiment [11] has as its target T4, SSB. Kind of experiment: AtheNA, Ab 50 ug/ml.
In experiment [12] the target is T5, RNP (ribonucleoprotein). The experiment can be described thus: AtheNA, Ab 50 ug/ml.
Experiment [13] deals with T6, Scl-70. Kind of experiment: AtheNA, Ab 50 ug/ml.
Experiment [14] addresses T7, Centromere B. The experiment can be described thus: AtheNA, Ab 12.5 ug/ml.
The target in experiment [15] is T5, RNP (ribonucleoprotein). The experiment can be described thus: AtheNA, Ab 12.5 ug/ml.

B1: CH493 (antibody, V domains shown)
VH: QVRLLQYGGGVKRPGASMTISCVASGYNFNDYYIHWVRQAPGQGLELMGWIDPSGGRTDYAGAFGDRVSMYRDKSMNTLYMDLRSLRSGDTAMYYCVRNVGTAGSLLHYDHWGLGVMVTVSS
VL: EIVLTQSPATLSVSPGERVTLSCRASQSVRNNLAWYRQKRGQAPRLLIYGASTRATGIPARFSGSGSGTEFTLTISSMQSEDFAVYYCQQYNNWWTFGQGTKVEIK
notes: also called CH235.9; DH493
Regarding B1, the AtheNA signal with SSA [1] was found to be 22; in the experiment with Histones [2], 174; with Sm (Smith antigen) [3], 46; in the experiment with SSB [4] it was 15; in the experiment with RNP (ribonucleoprotein) [5], 32; with Scl-70 [6] it was 17.

B2: CH557 (antibody, V domains shown)
VH: QVRLAQYGGGVKRLGATMTLSCVASGYTFNDYYIHWVRQAPGQGFELLGYIDPANGRPDYAGALRERLSFYRDKSMETLYMDLRSLRYDDTAMYYCVRNVGTAGSLLHYDHWGSGSPVIVSS
VL: EIVLTQSPATLSASPGERVTLTCRASRSVRNNVAWYQHKGGQSPRLLIYDASTRAAGVPARFSGSASGTEFTLAISNLESEDFTVYFCLQYNNWWTFGQGTRVDIK
notes: also called CH235.12; CH557_4A/293i
As for B2, the AtheNA signal in the experiment with Centromere B [7] was 46 relative luminescence units; in the experiment with SSA [8], 6 relative luminescence units; with Histones [9], 16 relative luminescence units; in the experiment with Sm (Smith antigen) [10] it was 8 relative luminescence units; with SSB [11], 15 relative luminescence units; with RNP (ribonucleoprotein) [12], 10 relative luminescence units. For the same molecule, the figures for the AtheNA signal with Scl-70 [13], in the experiment with Centromere B [14] and with RNP (ribonucleoprotein) [15] were 6 relative luminescence units, 16 relative luminescence units and 3 relative luminescence units, respectively.

(Values after US10450368 (DUKE UNIVERSITY, dated 2019).)
